Source: publication PMC10354024, “Conformational trajectory of allosteric gating of the human cone photoreceptor cyclic nucleotide-gated channel” (Nature Communications, 2023)
Blank lines part the entries; values can stand above or below the binder they belong to.

Experiments:
[1] = biological target: T1, truncated human CNGB3 (amino acids 79-809) (human, UniProt Q9NQW8-1 79-809); assay: cryo-EM structure; truncated CNGA3/CNGB3 co-expressed (P2A) and co-purified, in POPG/POPC (1:1) nanodiscs with MSP2N2, 50 mM HEPES-Na pH 8.58, 150 mM NaCl, 0.1 mM TCEP, 2 mM EGTA, 4 mM cGMP; five states (closed, intermediate 1, intermediate 2, pre-open, open), C1 symmetry; details: both partners purified
T1 construct: human CNGB3, NCBI NP_061971.3, amino acids 79-809 (amino acids 1-78 removed); Expressed as trunCNGA3-P2A-trunCNGB3 from one pEZT-BM vector; a residue of the P2A linker may precede the FLAG tag (surmised); also called truncated CNGB3; trunCNGB3
T1 sequence (looked up): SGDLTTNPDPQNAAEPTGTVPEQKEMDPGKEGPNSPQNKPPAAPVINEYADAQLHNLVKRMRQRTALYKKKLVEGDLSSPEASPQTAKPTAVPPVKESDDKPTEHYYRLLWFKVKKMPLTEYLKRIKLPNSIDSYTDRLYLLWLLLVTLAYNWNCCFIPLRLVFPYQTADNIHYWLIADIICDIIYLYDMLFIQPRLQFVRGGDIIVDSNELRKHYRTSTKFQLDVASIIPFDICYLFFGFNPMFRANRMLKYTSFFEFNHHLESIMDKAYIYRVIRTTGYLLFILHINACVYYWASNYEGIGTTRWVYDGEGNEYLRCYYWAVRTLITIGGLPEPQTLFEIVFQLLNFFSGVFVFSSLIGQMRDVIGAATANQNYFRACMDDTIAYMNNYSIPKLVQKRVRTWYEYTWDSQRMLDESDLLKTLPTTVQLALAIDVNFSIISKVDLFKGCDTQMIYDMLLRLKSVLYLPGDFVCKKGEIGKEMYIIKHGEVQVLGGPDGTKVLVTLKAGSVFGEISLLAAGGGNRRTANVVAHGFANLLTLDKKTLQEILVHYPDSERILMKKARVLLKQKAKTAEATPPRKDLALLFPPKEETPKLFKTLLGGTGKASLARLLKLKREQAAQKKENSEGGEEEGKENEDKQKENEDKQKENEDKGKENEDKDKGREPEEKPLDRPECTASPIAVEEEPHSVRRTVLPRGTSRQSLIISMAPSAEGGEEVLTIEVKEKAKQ

[2] = biological target: the molecule itself; assay: as above
[3] = biological target: T2, human CNGB3, full-length (human, UniProt Q9NQW8-1 1-809, N339 glycosylation site); assay: cryo-EM structure; full-length CNGA3/CNGB3 co-expressed and co-purified, in 0.02% GDN, 50 mM HEPES-Na pH 8.58, 150 mM NaCl, 0.1 mM TCEP, 2 mM EGTA, 2 mM cGMP; three states (closed, intermediate 1, intermediate 2), C1 symmetry; details: both partners purified
T2 construct: human cone photoreceptor cyclic nucleotide-gated channel subunit CNGB3, NCBI NP_061971.3, full length; modelled residues L206 to R643; One copy of this subunit stands with three CNGA3 in the channel tetramer; Cloned in the vector pEZT-BM (Addgene #74099); source: HEK 293S GnTi- cells (BacMam), co-infected with CNGA3 virus, purified (amylose resin, StrepTrap, Superose 6) in GDN
T2 sequence (looked up): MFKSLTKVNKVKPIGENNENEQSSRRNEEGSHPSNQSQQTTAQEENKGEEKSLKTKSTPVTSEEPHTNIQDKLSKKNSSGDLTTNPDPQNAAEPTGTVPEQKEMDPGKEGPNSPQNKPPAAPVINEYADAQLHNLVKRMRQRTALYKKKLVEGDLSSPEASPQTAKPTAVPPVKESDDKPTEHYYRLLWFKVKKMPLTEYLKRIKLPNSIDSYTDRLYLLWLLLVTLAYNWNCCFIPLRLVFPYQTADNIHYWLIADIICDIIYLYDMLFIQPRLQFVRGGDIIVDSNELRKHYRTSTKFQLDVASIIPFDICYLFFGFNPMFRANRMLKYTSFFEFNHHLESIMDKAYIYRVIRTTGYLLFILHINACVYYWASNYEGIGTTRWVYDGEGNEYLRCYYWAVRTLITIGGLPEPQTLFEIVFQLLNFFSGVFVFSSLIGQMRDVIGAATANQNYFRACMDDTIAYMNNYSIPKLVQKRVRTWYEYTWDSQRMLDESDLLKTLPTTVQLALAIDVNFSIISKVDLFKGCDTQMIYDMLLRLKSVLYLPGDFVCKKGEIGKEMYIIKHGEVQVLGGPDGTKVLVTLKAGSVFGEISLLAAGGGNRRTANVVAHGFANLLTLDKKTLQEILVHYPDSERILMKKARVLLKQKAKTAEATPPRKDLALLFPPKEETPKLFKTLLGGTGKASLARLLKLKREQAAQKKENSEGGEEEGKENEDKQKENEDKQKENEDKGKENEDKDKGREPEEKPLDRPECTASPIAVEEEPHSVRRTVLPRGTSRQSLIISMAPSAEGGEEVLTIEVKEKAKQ

[4] = biological target: the molecule itself; assay: as above

binding result [1]: binds
B1: truncated human CNGA3 (amino acids 152-694) (domain or fragment, UniProt Q16281-1 152-694, looked up)
chain: KTKKKDAIVVDPSSNLYYRWLTAIALPVFYNWYLLICRACFDELQSEYLMLWLVLDYSADVLYVLDVLVRARTGFLEQGLMVSDTNRLWQHYKTTTQFKLDVLSLVPTDLAYLKVGTNYPEVRFNRLLKFSRLFEFFDRTETRTNYPNMFRIGNLVLYILIIIHWNACIYFAISKFIGFGTDSWVYPNISIPEHGRLSRKYIYSLYWSTLTLTTIGETPPPVKDEEYLFVVVDFLVGVLIFATIVGNVGSMISNMNASRAEFQAKIDSIKQYMQFRKVTKDLETRVIRWFDYLWANKKTVDEKEVLKSLPDKLKAEIAINVHLDTLKKVRIFQDCEAGLLVELVLKLRPTVFSPGDYICKKGDIGKEMYIINEGKLAVVADDGVTQFVVLSDGSYFGEISILNIKGSKSGNRRTANIRSIGYSDLFCLSKDDLMEALTEYPEAKKALEEKGRQILMKDNLIDEELARAGADPKDLEEKVEQLGSSLDTLQTRFARLLAEYNATQMKMKQRLSQLESQVKGGGDKPLADGEVPGDATKTEDKQQ
notes: human CNGA3, NCBI NP_001289.1, amino acids 152-694 (amino acids 1-151 removed); Expressed as trunCNGA3-P2A-trunCNGB3 from one pEZT-BM vector; also called truncated CNGA3; trunCNGA3
binding result [2]: binds

stoichiometry N [3]: 3 A3 per B3
B2: human CNGA3, full-length (natural protein, UniProt Q16281-1 1-694, looked up)
chain: MAKINTQYSHPSRTHLKVKTSDRDLNRAENGLSRAHSSSEETSSVLQPGIAMETRGLADSGQGSFTGQGIARLSRLIFLLRRWAARHVHHQDQGPDSFPDRFRGAELKEVSSQESNAQANVGSQEPADRGRSAWPLAKCNTNTSNNTEEEKKTKKKDAIVVDPSSNLYYRWLTAIALPVFYNWYLLICRACFDELQSEYLMLWLVLDYSADVLYVLDVLVRARTGFLEQGLMVSDTNRLWQHYKTTTQFKLDVLSLVPTDLAYLKVGTNYPEVRFNRLLKFSRLFEFFDRTETRTNYPNMFRIGNLVLYILIIIHWNACIYFAISKFIGFGTDSWVYPNISIPEHGRLSRKYIYSLYWSTLTLTTIGETPPPVKDEEYLFVVVDFLVGVLIFATIVGNVGSMISNMNASRAEFQAKIDSIKQYMQFRKVTKDLETRVIRWFDYLWANKKTVDEKEVLKSLPDKLKAEIAINVHLDTLKKVRIFQDCEAGLLVELVLKLRPTVFSPGDYICKKGDIGKEMYIINEGKLAVVADDGVTQFVVLSDGSYFGEISILNIKGSKSGNRRTANIRSIGYSDLFCLSKDDLMEALTEYPEAKKALEEKGRQILMKDNLIDEELARAGADPKDLEEKVEQLGSSLDTLQTRFARLLAEYNATQMKMKQRLSQLESQVKGGGDKPLADGEVPGDATKTEDKQQ
notes: human cone photoreceptor cyclic nucleotide-gated channel subunit CNGA3, NCBI NP_001289.1, full length; modelled residues about A158-I159 to D609-L614; Three copies of this subunit stand with one CNGB3 in the channel tetramer; MBP was cut off with P3C protease; residues of the P3C site may remain at the N-terminus; Cloned in the vector pEZT-BM (Addgene #74099); also called CNGA3L; A3L; source: HEK …
binding result [4]: binds
